Source: patent US20230124669A1

Columns and labels:
[1] = biological target: neonatal Fc receptor FcRn; test: FcRn binding of bispecific antibody; method not stated
[2] = biological target: neonatal Fc receptor FcRn; test: FcRn binding of bispecific antibody at acidic pH; method not stated

pH dependent FcRn binding/% [1]: 0% | FcRn binding at acidic pH/nM [2]: 53.7 nM
B1: TY21489 (bispecific antibody, part only; not given: rest of both heavy chains, lights, not shown: a dimerising Fc or GST)
heavy, part 1: GQPREPQVYTLPPSRKKLTKNQVKLTCLVKGFYPSDIAVEWESNGQPENNYKTTPPVLDCDGSFFLYSKLTVDKSRWQQGNVFSCSVMHEALHNHYTQKSLSLSPGK
heavy, part 2: GQPREPQVYTDPPSRDELTKNQVSLTCLVDGFYPSDIAVEWESNGQPENCYKTTPPVLDSDGSFFLYSKLTVDKSRWQQGNVFSCSVMHEALHNHYTQDSLSLSPGK
